Laboratory results taken from US11332499B2, “Cyclic peptides and methods of use thereof” (Regents of the University of Minnesota, priority 2018, dated 2022).
Like-named read-outs stand apart in the source and are kept apart here. Each block holds one substance with its values, some of them ahead of it. Bridge positions count the residues as written; N and C are the ends. Ends that are not written are not given here.

What was measured:
[1] = target: MC3R (Mus musculus, UniProt P33033); conditions: β-galactosidase reporter gene assay; previously reported; cited from earlier work
MC3R, sequence (P33033 whole entry): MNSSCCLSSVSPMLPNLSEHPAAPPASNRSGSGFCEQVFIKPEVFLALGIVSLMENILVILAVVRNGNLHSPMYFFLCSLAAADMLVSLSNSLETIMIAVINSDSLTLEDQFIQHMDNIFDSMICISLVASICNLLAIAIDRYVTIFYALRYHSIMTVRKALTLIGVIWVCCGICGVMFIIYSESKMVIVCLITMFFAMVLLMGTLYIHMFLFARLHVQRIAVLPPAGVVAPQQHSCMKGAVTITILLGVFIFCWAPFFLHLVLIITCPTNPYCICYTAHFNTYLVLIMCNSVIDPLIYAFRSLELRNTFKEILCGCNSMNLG

[2] = target: MC4R (Mus musculus, UniProt P56450); conditions: β-galactosidase reporter gene assay; previously reported; cited from earlier work
MC4R (Mus musculus, UniProt P56450), sequence (P56450 whole entry): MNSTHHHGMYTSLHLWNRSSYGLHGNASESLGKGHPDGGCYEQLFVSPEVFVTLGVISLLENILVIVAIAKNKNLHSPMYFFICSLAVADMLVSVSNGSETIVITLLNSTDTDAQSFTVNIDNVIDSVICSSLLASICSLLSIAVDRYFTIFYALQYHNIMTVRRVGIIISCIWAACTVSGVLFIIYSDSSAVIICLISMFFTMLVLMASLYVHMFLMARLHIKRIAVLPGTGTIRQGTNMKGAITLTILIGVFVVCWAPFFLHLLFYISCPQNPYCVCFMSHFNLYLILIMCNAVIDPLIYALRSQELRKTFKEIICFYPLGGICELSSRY

[3] = target: MC1R (Mus musculus, UniProt Q01727); conditions: previously reported, read-out: MC1R agonist potency, cited from earlier work
MC1R, sequence (Q01727 whole entry): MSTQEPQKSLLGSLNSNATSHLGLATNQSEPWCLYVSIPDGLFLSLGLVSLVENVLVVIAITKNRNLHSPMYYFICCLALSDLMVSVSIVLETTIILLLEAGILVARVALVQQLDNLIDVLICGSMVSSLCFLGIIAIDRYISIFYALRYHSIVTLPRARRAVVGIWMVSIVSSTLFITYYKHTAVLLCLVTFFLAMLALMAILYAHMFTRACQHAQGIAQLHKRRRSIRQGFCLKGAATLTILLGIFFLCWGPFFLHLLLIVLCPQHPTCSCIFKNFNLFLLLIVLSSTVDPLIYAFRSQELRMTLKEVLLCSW

[4] = target: T1, hMC4R-Kir7.1(M125R) (Homo sapiens, UniProt P32245); experiment: Kir7.1 thallium flux assay, HEK293 cells expressing human MC4R and Kir7.1 (M125R); format: cell-based; conditions: antagonist Ki / Kir7.1 apparent potency
T1 construct: expressed in transfected cells; Kir7.1 tetracycline-induced)
T1 sequence (P32245 whole entry, stated change not applied): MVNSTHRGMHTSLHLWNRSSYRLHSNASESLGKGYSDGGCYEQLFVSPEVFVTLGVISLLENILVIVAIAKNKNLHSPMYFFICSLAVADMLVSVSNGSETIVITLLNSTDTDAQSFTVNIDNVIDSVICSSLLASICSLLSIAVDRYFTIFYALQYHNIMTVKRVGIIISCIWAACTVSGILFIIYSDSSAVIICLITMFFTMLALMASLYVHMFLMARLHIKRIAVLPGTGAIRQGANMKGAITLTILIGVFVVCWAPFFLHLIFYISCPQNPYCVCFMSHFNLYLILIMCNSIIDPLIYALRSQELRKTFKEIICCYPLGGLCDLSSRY
Method: In this assay, the Kir7.1 (M125R) variant was used since it previously was reported to result in higher unitary conductance compared to the native channel.^39
The compound with the highest apparent potency.
HEK293 cells stably expressing the human MC4R and Kir7.1 (M125R) were grown in MEM medium with 10% FBS without antibiotics, suspended in medium plus 1 μg ml^−1 tetracycline (to induce expression of the transfected tet-sensitive Kir7.1 gene) and plated (20 μL) in 384-well poly-D-lysine coated optical bottom plates (BD Biosciences) at 20,000 cells per well. Plates were incubated overnight for 16-24 h in the cell incubator at 37° C., 5% CO2. […] Plates were incubated in the dark for 1 h at room temperature and dye solution was removed. Upon addition of 20 μL 1×HBSS buffer, a liquid handler added 20 μL of ligand solution to entire plate simultaneously (ligands were prepared by serial dilution in 1×HBSS, 20 mM HEPES, 0.1% BSA, pH 7.3). Plates were incubated in the dark for 20 min (unless otherwise indicated). After a baseline reading on a Thallos Plate-reader (Vanderbilt, Tenn.), 10 μL of a thallium solution (1×HBSS, 20 mM HEPES, 2 mM Tl, pH 7.3) was loaded and fluorescence generated by thallium influx was recorded for 10 min. The signal was normalized to an untreated control.

[5] = system: free-feeding mice; experiment: Mouse feeding study, intracerebroventricular (ICV) administration; format: in vivo; conditions: 10 nmol
[6] = system: free-feeding mice; experiment: Mouse feeding study, intrathecal (IT) administration (Example 5); format: in vivo; conditions: 10 nmol
Method: All studies were performed in standard mouse polycarbonate conventional cages provided by the University of Minnesota's Research Animal Resources (RAR), and were changed weekly by laboratory research staff.
All ICV and IT administration experiments utilized a crossover design with free access to standard chow. Mice were housed in RAR supplied conventional mouse cages. Compound MDE3-119-8e was dissolved in a stock solution of 10 nmols/μL in 3% v/v DMSO (Sigma Aldrich)/saline (0.9% sodium chloride, Hospira Inc., Lake Forest, Ill.). Ligands MDE3-119-2c and MDE3-119-10c were dissolved in 20% solutol (Sigma Aldrich). Matching vehicle controls (3% v/v DMSO in saline and 20% solutol) were prepared in parallel. The day of compound administration, an aliquot of stock solution was diluted with saline to the desired experimental dose in 3 μL, in parallel with vehicle control. For ICV administration, the desired experimental dose (3 μL) or vehicle control (3 μL) was delivered 2 h before lights out (t=0 h). […] Food intake and mouse weight was manually measured at t=0, 2, 4, 6, 8, 24, 48, and 72 h post-injection. […]
For feeding experiments with compound MDE3-119-10c, data were analyzed using the PRISM program (v4.0; GraphPad Inc.) by two-way ANOVA with a Sidak's multiple comparison post hoc test.

[7] = target: T2, MC4R (Homo sapiens, UniProt P32245); experiment: AlphaScreen cAMP assay, antagonist activity (Schild, NDP-MSH) at hMC4R; format: cell-based; set-up: expressed in transfected cells; conditions: Example 5
T2 sequence (P32245 whole entry): as the sequence (P32245 whole entry, stated change not applied) above

[8] = target: T2, MC4R; experiment: Competitive radioligand binding, displacement of 125I-NDP-MSH, HEK293 cells expressing hMC4R; set-up: expressed in transfected cells; conditions: displacement of 125I-NDP-MSH
[9] = target: T2, MC4R; experiment: Competitive radioligand binding, displacement of 125I-AGRP, HEK293 cells expressing hMC4R; set-up: expressed in transfected cells; conditions: displacement of 125I-AGRP
[10] = target: mMC4R (Mus musculus, UniProt P56450); set-up: expressed in transfected cells; conditions: cited from earlier work
mMC4R, sequence (P56450 whole entry): as the sequence (P56450 whole entry) above

[11] = target: T2, MC4R; experiment: AlphaScreen cAMP assay, inverse agonist activity at hMC4R; format: cell-based; set-up: expressed in transfected cells; conditions: Table 10
[12] = target: T2, MC4R; set-up: expressed in transfected cells; conditions: Table 10; AGRP(87-132), previously reported by Jackson et al.; read-out: hMC4R 125I-NDP-MSH IC50; cited from earlier work
[13] = target: T3, mMC1R (Mus musculus, UniProt Q01727); conditions: Table 6; previously described (Wilczynski 2004); read-out: Agonist mMC1R EC50; cited from earlier work
T3 construct: expressed in transfected cells
T3 sequence (Q01727 whole entry): as the sequence (Q01727 whole entry) above

[14] = target: T4, mMC3R (Mus musculus, UniProt P33033); conditions: Table 6, previously described (Wilczynski 2004), cited from earlier work
T4 construct: expressed in transfected cells
T4 sequence (P33033 whole entry): as the sequence (P33033 whole entry) above

[15] = target: T5, mMC5R (Mus musculus, UniProt P41149); conditions: Table 6; previously described (Wilczynski 2004); read-out: Inverse Agonist mMC5R EC50; cited from earlier work
T5 construct: expressed in transfected cells
T5 sequence (P41149 whole entry): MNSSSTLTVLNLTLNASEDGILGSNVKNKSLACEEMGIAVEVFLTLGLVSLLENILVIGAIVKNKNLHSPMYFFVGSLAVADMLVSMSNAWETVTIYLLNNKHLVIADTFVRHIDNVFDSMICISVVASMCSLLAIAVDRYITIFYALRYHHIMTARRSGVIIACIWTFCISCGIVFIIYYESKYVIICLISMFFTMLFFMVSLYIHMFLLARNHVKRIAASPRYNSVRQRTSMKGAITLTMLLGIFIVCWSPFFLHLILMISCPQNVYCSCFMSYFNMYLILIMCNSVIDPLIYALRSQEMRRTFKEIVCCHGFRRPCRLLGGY

[16] = system: rats; conditions: ICV administration into rats; cited from earlier work

Substance: Tyr-c[Cys-Arg-Phe-Phe-Asn-Ala-Phe-Cys]-Tyr (YCRFFNAFCY; disulfide 2-9) [hAGRP (109-118)]
- MC3R antagonist pA2 [1]: No activity
- MC4R antagonist pA2 [2]: 6.8 ± 0.4
- EC50 ([3]; listed as H-Tyr-c[Cys-Arg-Phe-Phe-Asn-Ala-Phe-Cys]-Tyr-OH): 2.89 µM
- EC50 [3]: 3 µM

Substance: c[Pro-Arg-Phe-Phe-Val-Ala-Phe-DPro] [Peptide 13 (Example 1)]
- fold selective for Kir7.1 signaling over cAMP antagonism [4]: 4,000 fold
- cumulative food intake after ICV administration vs vehicle [5]: significant, prolonged decrease in cumulative food intake at 4, 6, 8, 24, 48, and 72 h
- food intake after IT administration vs vehicle [6]: no effect on food intake compared to vehicle
- fold decreased antagonist potency relative to MDE3-119-8c at the hMC4R [7]: 310 fold
- fold decreased binding affinity compared to NDP-MSH [8]: 200 fold
- fold decreased binding affinity compared to AGRP [9]: 200 fold
- fold decreased antagonist potency compared to the Dap substitution at the mMC4R ([10]; previous SAR study (ref 52)): 630 fold

- fold selective for cAMP over Kir7.1 signaling [4]: 2 fold
- hMC4R Inverse Agonist, decrease from basal signal [11]: (-35%)
Substance: hAGRP(86-132): C-terminal domain of agouti-related protein, purchased from Peptides International (RCVRLHESCLGQQVPCCDPCATCYCRFFNAFCYCRKLGTAMNPCSRT) [reference compound]
- IC50 [12]: 0.011 ± 0.001 µM

Substance: hAGRP(87-132): truncated human agouti-related protein, previously described in Wilczynski et al. 2004
- EC50 [13]: > 100 µM
- Antagonist mMC3R pA2 [14]: 8.9 ± 0.2
- Ki ([14]; read-out: Antagonist mMC3R Ki): 0.0013 µM
- EC50 [15]: > 100 µM
- increase of 24 h food intake above saline [16]: 42%
- Antagonist mMC4R pA2 ([10]; Table 6, previously described (Wilczynski 2004)): 9.4 ± 1.0
- Ki ([10]; Table 6, previously described (Wilczynski 2004), read-out: Antagonist mMC4R Ki): 0.0004 µM
